The values that follow come from patent US6770631 (ADPROTECH, dated 2004).

For one test, the target named is T1, co-ligated CR2.IgG1.
T1 construct: also called CR2; IgGl
In words: competitive ELISA: plate-bound C3d, 125 pM CR2.IgG1, soluble C3d titrated, HRP anti-mouse IgG1 detection. As to the method:
C3d is used to coat 96-well microtitre plates at 5 µg/ml in O. 1M NaHCO_3 by incubating overnight at 4° C. The plates are then blocked in 1% BSA 0.1% Tween-20 in PBS for 1 h at room temperature subsequently they are incubated with either 25 µl/well of C3d or from the C3d containing molecule under test in a dose response manner. To the wells is added 25 µl/well of a sub-saturating concentration of co-ligated CR2. […] The plates are then washed three times with PBS containing 0.1% (v/v) Tween-20. The amount of CR2 bound to the immobilised C3d is detected using a 1:3000 dilution of HRP-labeled goat anti-mouse-IgGl-antibody in PBS containing 0.1% (v/v)Tween-20 and incubated for 1 h at room temperature the wells were then washed as described above. The presence of HRP-antibody is detected using the TMB Peroxidase EIA Substrate Kit according to the manufacturer's instructions (Bio-Rad, UK).
The ELISA was performed as described in General Methods Section (xvii) (b). The monomer gave a $I50$ of 2 µM for the baculovirus/Sf9 material. A similar figure was obtained for the COS cell produced C3d.
In general terms: ELISA stands for enzyme-linked immunosorbent assay.

In test [1] the target is T2, complement receptor-2 (CR2) on the surface of Raji cells (UniProt P20023 21-1033, limits assumed).
T2 construct: whole, on cells; also called CD21; complement receptor type 2
T2 sequence (looked up): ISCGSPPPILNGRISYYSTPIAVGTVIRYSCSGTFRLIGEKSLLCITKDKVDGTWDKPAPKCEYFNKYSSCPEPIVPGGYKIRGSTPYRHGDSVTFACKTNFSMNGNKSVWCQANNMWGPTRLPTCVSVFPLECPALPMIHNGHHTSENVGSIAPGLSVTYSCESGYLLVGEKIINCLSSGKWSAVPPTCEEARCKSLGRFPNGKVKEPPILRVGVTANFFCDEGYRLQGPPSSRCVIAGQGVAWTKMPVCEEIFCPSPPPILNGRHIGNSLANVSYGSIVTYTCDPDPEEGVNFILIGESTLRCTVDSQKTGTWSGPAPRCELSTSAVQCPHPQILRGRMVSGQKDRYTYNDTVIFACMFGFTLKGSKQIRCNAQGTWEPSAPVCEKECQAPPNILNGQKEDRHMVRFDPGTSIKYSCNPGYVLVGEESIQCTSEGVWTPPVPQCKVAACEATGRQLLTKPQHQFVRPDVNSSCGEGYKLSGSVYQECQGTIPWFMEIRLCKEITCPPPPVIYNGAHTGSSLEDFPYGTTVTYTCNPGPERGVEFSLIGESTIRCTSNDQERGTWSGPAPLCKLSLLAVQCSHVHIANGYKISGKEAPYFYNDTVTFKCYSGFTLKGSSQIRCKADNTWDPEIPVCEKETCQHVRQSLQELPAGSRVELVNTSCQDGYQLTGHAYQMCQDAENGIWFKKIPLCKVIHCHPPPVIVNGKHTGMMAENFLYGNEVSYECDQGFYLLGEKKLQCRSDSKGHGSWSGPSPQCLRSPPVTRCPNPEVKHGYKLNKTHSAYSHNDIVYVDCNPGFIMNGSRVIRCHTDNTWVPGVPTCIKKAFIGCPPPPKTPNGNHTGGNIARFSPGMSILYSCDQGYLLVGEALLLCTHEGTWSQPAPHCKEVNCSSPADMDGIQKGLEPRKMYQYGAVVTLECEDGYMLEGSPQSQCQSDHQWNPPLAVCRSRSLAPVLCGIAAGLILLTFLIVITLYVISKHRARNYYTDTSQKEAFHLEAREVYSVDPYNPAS
The experiment in a line: competitive binding on Raji cells against 1 nM 125I-HEL-C3d, 1 h at 4 C, cell-pellet radioactivity. The method, then:
The cells are then centrifuged through a dibutyl-diiso-octyl-phthalate cushion, and the amount of radioactivity associated with the pellet determined.
The binding was performed as described in General Methods Section (xvii) (a).

B1: C3d monomer produced in baculovirus/Sf9 cells (murine C3d with C-terminal Glu-Glu-Phe tag) (ligand)
chain: not shown
notes: The end residue 330 was counted from the printed appendix (33 rows of 10 residues); Measured mass 34279 Da; also called baculovirus/Sf9 C3d; C3d1
The term IC50 denotes the concentration at which inhibition is half-maximal. For the molecule B1, the IC50 is 2 µM with co-ligated CR2.IgG1 and 2.5 µM in test [1].

B2: C3d expressed in COS cells (ligand)
chain: not shown
notes: domain: C3d; Comparator material; also called COS cell produced C3d
With B2, the IC50 in test [1] worked out at 2.5 µM.
